Assay results taken from article PMC10208894, “The SmNPR4-SmTGA5 module regulates SA-mediated phenolic acid biosynthesis in Salvia miltiorrhiza hairy roots”.

T1: SmTGA5 (Salvia miltiorrhiza, UniProt UPI0025ACD97B 1-458)
T1 sequence: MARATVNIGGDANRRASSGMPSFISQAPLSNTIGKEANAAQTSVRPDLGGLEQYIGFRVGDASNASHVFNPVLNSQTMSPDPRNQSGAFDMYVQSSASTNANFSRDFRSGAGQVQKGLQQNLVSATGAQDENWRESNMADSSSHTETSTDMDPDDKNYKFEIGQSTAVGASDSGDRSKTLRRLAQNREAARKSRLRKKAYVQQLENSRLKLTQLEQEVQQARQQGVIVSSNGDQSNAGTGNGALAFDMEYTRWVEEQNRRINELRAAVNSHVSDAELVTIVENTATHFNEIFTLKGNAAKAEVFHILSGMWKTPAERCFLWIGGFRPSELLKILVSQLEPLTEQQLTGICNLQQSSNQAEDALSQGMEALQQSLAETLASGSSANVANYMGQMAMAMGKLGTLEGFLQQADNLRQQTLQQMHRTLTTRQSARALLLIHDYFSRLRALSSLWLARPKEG

B1: Probe-pTAT1 (3x as-1) (dsDNA)
DNA 1: TTTAAAGTGACGTGTATCATTTAAAGTGACGTGTATCATTTAAAGTGACGTGTATCA
DNA 2: TGATACACGTCACTTTAAATGATACACGTCACTTTAAATGATACACGTCACTTTAAA
B2: Mut-Probe-pTAT1 (dsDNA)
DNA 1: TTTAAAGTTAAATGTATCATTTAAAGTTAAATGTATCATTTAAAGTTAAATGTATCA
DNA 2: TGATACATTTAACTTTAAATGATACATTTAACTTTAAATGATACATTTAACTTTAAA

Assays:
SmTGA5 [1] = molecular target: T1, SmTGA5; test: EMSA; unlabeled probe at 1:10 and 1:100 reduces the shift; Beyotime GS009 EMSA kit, 20-25 C, 20 min, acrylamide gel; buffer, salt and pH not stated; details: protein: recombinant; tags: His (pET32a, N-terminal fusion); chain copies: 2; blunt
SmTGA5 [2] = molecular target: T1, SmTGA5; test: EMSA; Beyotime GS009 EMSA kit, 20-25 C, 20 min, acrylamide gel; buffer, salt and pH not stated; details: protein: recombinant; tags: His (pET32a, N-terminal fusion); chain copies: 2; blunt

Row | Binder | binding result (SmTGA5 [1]) | binding result (SmTGA5 [2])
1 | B1 | binds | –
2 | B2 | – | no binding
